Results: US20250270313A1 (SUNSHINE LAKE PHARMA, published 2025)

How the values were obtained:
[1] = target: T1, human Claudin 18.2 (hClaudin18.2) (human, UniProt P56856-2 1-261); assay: cell-based or functional assay
[2] = target: T2, hClaudin 18.2 peptide 18.2EL1-A (human); assay: peptide competition: antibody pre-incubated with peptide, then flow cytometry on CHO cells overexpressing claudin18.2
T2 construct: also called peptide A; A peptide
T2 peptide: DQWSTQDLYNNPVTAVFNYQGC

[3] = target: T1, human Claudin 18.2 (hClaudin18.2); assay: flow cytometry on CHO cells overexpressing claudin18.2, purified murine antibody
Protocol: CHO overexpressing claudin18.1 cells and CHO overexpressing claudin18.2 cells were prepared, centrifuged at 300 g for 5 minutes, then resuspended in PBS, and this step was repeated twice. Finally, the concentration was adjusted to 3E+06 cells/mL with PBS. […] CHO overexpressing claudin18.1 cells and CHO overexpressing claudin18.2 cells were laid out in two rows of transparent 96 round-bottomed wells, each with 100 μL, and then the antibodies were added to the cells in order and mixed evenly at 1:1. Each was set blank wells and negative wells. The mixture was put in a refrigerator at 4° C. and incubated for 1 hour. After the incubation, the mixture was centrifuged at 500 g for 3 min in a large-capacity benchtop high-speed centrifuge, then resuspended in PBS, and this step was repeated three times. The PE-labeled goat anti-mouse secondary antibody was diluted to a concentration of 1:500, and 100 μL was added to each well. The blank wells were left alone. The mixture was put in a refrigerator at 4° C. and incubated for 30 min. After the incubation, the mixture was centrifuged at 500 g for 3 min in a large-capacity tabletop high-speed centrifuge, then resuspended in PBS, and this step was repeated three times. Finally, 180 μL of PBS was added to each well and BDverse flow cytometer was used to test.

[4] = target: T3, hClaudin 18.2 peptide 18.2EL1-E (human); assay: peptide competition: antibody pre-incubated with peptide, then flow cytometry on CHO cells overexpressing claudin18.2
T3 construct: also called peptide E; E peptide
T3 peptide: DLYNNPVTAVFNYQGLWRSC

[5] = target: T1, human Claudin 18.2 (hClaudin18.2); assay: flow cytometry on CHO cells overexpressing claudin18.2, scFv-Fc fusion protein
Protocol: CHO overexpressing claudin18.2 cells were prepared and centrifuged at 300 g for 5 minutes, then resuspended in PBS, and this step was repeated twice. Finally, the concentration was adjusted to 3E+06 cells/mL with PBS. […] CHO overexpressing claudin18.1 cells and CHO overexpressing claudin18.2 cells were laid out in two rows of transparent 96 round-bottomed wells, each with 100 μL, and then the antibodies were added to the cells in order and mixed evenly at 1:1. Each was set blank wells and negative wells. The mixture was put in a refrigerator at 4° C. and incubated for 1 hour. After the incubation, the mixture was centrifuged at 500 g for 3 min in a large-capacity benchtop high-speed centrifuge, then resuspended in PBS, and this step was repeated three times. The PE-labeled goat anti-human secondary antibody was diluted to a concentration of 1:500, and 100 μL was added to each well. The blank wells were left alone. The mixture was put in a refrigerator at 4° C. and incubated for 30 min. After the incubation, the mixture was centrifuged at 500 g for 3 min in a large-capacity tabletop high-speed centrifuge, then resuspended in PBS, and this step was repeated three times. Finally, 180 μL of PBS was added to each well and BDverse flow cytometer was used to test.

| Binder | ADCC reporter (Jurkat-NFAT-Luc-CD16 luciferase), half-peak concentration EC50, target cell BXPC-3-Claudin 18.2 [1] [ng/mL] | ADCC reporter (Jurkat-NFAT-Luc-CD16 luciferase), half-peak concentration EC50, target cell Capan-1-Claudin 18.2 [1] [ng/mL] | ADCC reporter (Jurkat-NFAT-Luc-CD16 luciferase), half-peak concentration EC50, target cell SK-GT-Claudin 18.2 [1] [ng/mL] | CDC activity (CCK8 cell viability, OD450), half inhibitory concentration IC50, target cell KATOIII-3-Claudin 18.2 [1] [ng/mL] | other results |
| --- | --- | --- | --- | --- | --- |
| IMAB362 control antibody (antibody, V domains shown) VH: QVQLQQPGAELVRPGASVKLSCKASGYTFTSYWINWVKQRPGQGLEWIGNIYPSDSYTNYNQKFKDKATLTVDKSSSTAYMQLSSPTSEDSAVYYCTRSWRGNSFDYWGQGTTLTVSS VL: DIVMTQSPSSLTVTAGEKVTMSCKSSQSLLNSGNQKNYLTWYQQKPGQPPKLLIYWASTRESGVPDRFTGSGSGTDFTLTISSVQAEDLAVYYCQNDYSYPFTFGSGTKLEIKR | 3.45 | 3.48 | 9.06 | 4890 |  |
| m1E7 anti-Claudin 18.2 murine monoclonal antibody (antibody, mouse IgG2b, kappa, Murine antibody with full heavy and light chains; also called 1E7 (hybridoma); m1E7 mAb) heavy: QVQLQQPGSELVKPGASVKLSCKASGYTFTSYWMHWVKQRPGQGLEWIGMIHPNSGSTNYNEKFKSKATLTVDKSSSTAYMQLSSLTSEDSAVYYCARRYYGSISPDYWGQGTTLTVSSAKTTPPSVYPLAPGCGDTTGSSVTLGCLVKGYFPESVTVTWNSGSLSSSVHTFPALLQSGLYTMSSSVTVPSSTWPSQTVTCSVAHPASSTTVDKKLEPSGPISTINPCPPCKECHKCPAPNLEGGPSVFIFPPNIKDVLMISLTPKVTCVVVDVSEDDPDVQISWFVNNVEVHTAQTQTHREDYNSTIRVVSTLPIQHQDWMSGKEFKCKVNNKDLPSPIERTISKIKGLVRAPQVYILPPPAEQLSRKDVSLTCLVVGFNPGDISVEWTSNGHTEENYKDTAPVLDSDGSYFIYSKLNMKTSKWEKTDSFSCNVRHEGLKNYYLKKTISRSPGK light: DIVMTQSPSSLSVTAGEKVTMSCKSSQSLLNSGNQKNYLTWYQQKPGQPPKLLIYWASTRESGVPDRFTGSGSGTDFTLTISSVQAEDLAVYYCQNDYSYPFTFGSGTKLEIKRADAAPTVSIFPPSSEQLTSGGASVVCFLNNFYPKDINVKWKIDGSERQNGVLNSWTDQDSKDSTYSMSSTLTLTKDEYERHNSYTCEATHKTSTSPIVKSFNRNEC |  |  |  |  | binding result [2]: binds; EC50 [3]: ~100 ng/mL |
| m1B6 anti-Claudin 18.2 murine monoclonal antibody (antibody, mouse IgG2b, kappa, Murine antibody with full heavy and light chains; also called 1B6 (hybridoma); m1B6 mAb) heavy: EVQLQQSGPELVRPGASVKMSCKASGYTFTDYNMHWVKQSHGKSLEWIGYINPNNGGTSYNQKFKGKATLTVNKSSSTAYMELRSLTSEDSAVYYCVTTRYLAVWGTGTTVTVSSAKTTPPSVYPLAPGCGDTTGSSVTLGCLVKGYFPESVTVTWNSGSLSSSVHTFPALLQSGLYTMSSSVTVPSSTWPSQTVTCSVAHPASSTTVDKKLEPSGPISTINPCPPCKECHKCPAPNLEGGPSVFIFPPNIKDVLMISLTPKVTCVVVDVSEDDPDVQISWFVNNVEVHTAQTQTHREDYNSTIRVVSTLPIQHQDWMSGKEFKCKVNNKDLPSPIERTISKIKGLVRAPQVYILPPPAEQLSRKDVSLTCLVVGFNPGDISVEWTSNGHTEENYKDTAPVLDSDGSYFIYSKLNMKTSKWEKTDSFSCNVRHEGLKNYYLKKTISRSPGK light: DIVMTQSPSSLTVTAGEKVTMSCKSSQSLFNSGNQKNYLTWYQQKPGQPPKLLIYWASTRESGVPDRFTGSGSGTDFTLTISSVQAEDLAVYFCQNDYSYPLTFGAGTKLELRRADAAPTVSIFPPSSEQLTSGGASVVCFLNNFYPKDINVKWKIDGSERQNGVLNSWTDQDSKDSTYSMSSTLTLTKDEYERHNSYTCEATHKTSTSPIVKSFNRNEC |  |  |  |  | binding result [2]: binds; binding result [4]: binds; EC50 [3]: ~60 ng/mL |
| m1B6-FC anti-Claudin 18.2 scFv-Fc fusion protein (Fc fusion, also called m1B6 (Fc fusion protein form); 1B6 scFv-Fc; not shown: detected wi) scFv: DIVMTQSPSSLTVTAGEKVTMSCKSSQSLFNSGNQKNYLTWYQQKPGQPPKLLIYWASTRESGVPDRFTGSGSGTDFTLTISSVQAEDLAVYFCQNDYSYPLTFGAGTKLELRGGGGSGGGGSGGGGSEVQLQQSGPELVRPGASVKMSCKASGYTFTDYNMHWVKQSHGKSLEWIGYINPNNGGTSYNQKFKGKATLTVNKSSSTAYMELRSLTSEDSAVYYCVTTRYLAVWGTGTTVTVSS |  |  |  |  | EC50 [5]: ~500 ng/mL |
| chimeric antibody 1B6 (antibody, human IgG1, kappa) heavy: not shown light: DIVMTQSPSSLTVTAGEKVTMSCKSSQSLFNSGNQKNYLTWYQQKPGQPPKLLIYWASTRESGVPDRFTGSGSGTDFTLTISSVQAEDLAVYFCQNDYSYPLTFGAGTKLELRRTVAAPSVFIFPPSDEQLKSGTASVVCLLNNFYPREAKVQWKVDNALQSGNSQESVTEQDSKDSTYSLSSTLTLSKADYEKHKVYACEVTHQGLSSPVTKSFNRGEC | 2.11 | 2.68 | 4.47 | 2660 |  |
| chimeric antibody 1E7 (antibody, human IgG1, kappa) heavy: not shown light: DIVMTQSPSSLSVTAGEKVTMSCKSSQSLLNSGNQKNYLTWYQQKPGQPPKLLIYWASTRESGVPDRFTGSGSGTDFTLTISSVQAEDLAVYYCQNDYSYPFTFGSGTKLEIKRTVAAPSVFIFPPSDEQLKSGTASVVCLLNNFYPREAKVQWKVDNALQSGNSQESVTEQDSKDSTYSLSSTLTLSKADYEKHKVYACEVTHQGLSSPVTKSFNRGEC | 2.7 | 2.63 | 7.07 | 1570 |  |
| m1E7-FC anti-Claudin 18.2 scFv-Fc fusion protein (Fc fusion, also called m1E7 (Fc fusion protein form); 1E7 scFv-Fc; not shown: detected wi) scFv: DIVMTQSPSSLSVTAGEKVTMSCKSSQSLLNSGNQKNYLTWYQQKPGQPPKLLIYWASTRESGVPDRFTGSGSGTDFTLTISSVQAEDLAVYYCQNDYSYPFTFGSGTKLEIKGGGGSGGGGSGGGGSQVQLQQPGSELVKPGASVKLSCKASGYTFTSYWMHWVKQRPGQGLEWIGMIHPNSGSTNYNEKFKSKATLTVDKSSSTAYMQLSSLTSEDSAVYYCARRYYGSISPDYWGQGTTLTVSS |  |  |  |  | EC50 [5]: ~2600 ng/mL |
